According to the supplement of paper PMC9112550, “Optimization of the antimicrobial peptide Bac7 by deep mutational scanning” (BMC Biology, 2022):

Tested on: Escherichia coli TOP10
Experiment: shrunken log2 fold change of peptide-encoding DNA abundance (4.5 h post-induction vs induction); higher = less antimicrobial activity (less host growth inhibition)
Settings: time post-induction: 4.5 h; library: site-saturation at positions 5, 18, 19, 20
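Further: peptides expressed intracellularly from a pBAD plasmid library in pooled LB shake-flask culture, induced with 0.3% L-arabinose, DNA abundance read by NGS, three biological replicates, DESeq2 with apeglm shrinkage.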

RRIRHRPPRLPRPRPRPEKMPRP
shrunken log2 fold change: -0.0669

RRIRHRPPRLPRPRPRPELAPRP
shrunken log2 fold change: -0.0268

RRIRHRPPRLPRPRPRPELVPRP
shrunken log2 fold change: 0.177

RRIRHRPPRLPRPRPRPEMKPRP
shrunken log2 fold change: -0.0143

RRIRHRPPRLPRPRPRPEMRPRP
shrunken log2 fold change: 0.122

RRIRHRPPRLPRPRPRPENAPRP
shrunken log2 fold change: 0.14

RRIRHRPPRLPRPRPRPENMPRP
shrunken log2 fold change: -0.042

RRIRHRPPRLPRPRPRPENRPRP
shrunken log2 fold change: 0.019

RRIRHRPPRLPRPRPRPENSPRP
shrunken log2 fold change: -0.304

RRIRHRPPRLPRPRPRPENWPRP
shrunken log2 fold change: 0.147

RRIRHRPPRLPRPRPRPEPCPRP
shrunken log2 fold change: 0.0696

RRIRHRPPRLPRPRPRPEPKPRP
shrunken log2 fold change: -0.0206

RRIRHRPPRLPRPRPRPEQNPRP
shrunken log2 fold change: 0.0816

RRIRHRPPRLPRPRPRPEREPRP
shrunken log2 fold change: 0.0173

RRIRHRPPRLPRPRPRPETCPRP
shrunken log2 fold change: -0.0251

RRIRHRPPRLPRPRPRPETEPRP
shrunken log2 fold change: 0.105

RRIRHRPPRLPRPRPRPETPPRP
shrunken log2 fold change: 0.561

RRIRHRPPRLPRPRPRPETTPRP
shrunken log2 fold change: 0.194

RRIRHRPPRLPRPRPRPEVNPRP
shrunken log2 fold change: 0.062

RRIRHRPPRLPRPRPRPEVVPRP
shrunken log2 fold change: -0.018

RRIRHRPPRLPRPRPRPEWGPRP
shrunken log2 fold change: 0.209

RRIRHRPPRLPRPRPRPEYKPRP
shrunken log2 fold change: -0.467

RRIRHRPPRLPRPRPRPEYMPRP
shrunken log2 fold change: -0.05

RRIRHRPPRLPRPRPRPFALPRP
shrunken log2 fold change: 0.051

RRIRHRPPRLPRPRPRPFASPRP
shrunken log2 fold change: -0.182

RRIRHRPPRLPRPRPRPFCNPRP
shrunken log2 fold change: 0.00929

RRIRHRPPRLPRPRPRPFCYPRP
shrunken log2 fold change: -0.286

RRIRHRPPRLPRPRPRPFDRPRP
shrunken log2 fold change: -0.172

RRIRHRPPRLPRPRPRPFEEPRP
shrunken log2 fold change: 0.0124

RRIRHRPPRLPRPRPRPFEHPRP
shrunken log2 fold change: -0.0952

RRIRHRPPRLPRPRPRPFGAPRP
shrunken log2 fold change: -0.0114

RRIRHRPPRLPRPRPRPFHRPRP
shrunken log2 fold change: 0.00911

RRIRHRPPRLPRPRPRPFIVPRP
shrunken log2 fold change: -0.319

RRIRHRPPRLPRPRPRPFIYPRP
shrunken log2 fold change: -0.831

RRIRHRPPRLPRPRPRPFLLPRP
shrunken log2 fold change: -0.502

RRIRHRPPRLPRPRPRPFLMPRP
shrunken log2 fold change: -0.456

RRIRHRPPRLPRPRPRPFLRPRP
shrunken log2 fold change: -0.173

RRIRHRPPRLPRPRPRPFLYPRP
shrunken log2 fold change: -0.624

RRIRHRPPRLPRPRPRPFMFPRP
shrunken log2 fold change: -0.66

RRIRHRPPRLPRPRPRPFNDPRP
shrunken log2 fold change: -0.01

RRIRHRPPRLPRPRPRPFNHPRP
shrunken log2 fold change: -0.372

RRIRHRPPRLPRPRPRPFPCPRP
shrunken log2 fold change: -0.0311

RRIRHRPPRLPRPRPRPFRDPRP
shrunken log2 fold change: 0.0888

RRIRHRPPRLPRPRPRPFRQPRP
shrunken log2 fold change: 0.0583

RRIRHRPPRLPRPRPRPFRSPRP
shrunken log2 fold change: -0.000777

RRIRHRPPRLPRPRPRPFTDPRP
shrunken log2 fold change: -0.1

RRIRHRPPRLPRPRPRPFTSPRP
shrunken log2 fold change: -0.197

RRIRHRPPRLPRPRPRPFVCPRP
shrunken log2 fold change: -0.453

RRIRHRPPRLPRPRPRPFVNPRP
shrunken log2 fold change: -0.124

RRIRHRPPRLPRPRPRPFWVPRP
shrunken log2 fold change: -0.00136

RRIRHRPPRLPRPRPRPFYEPRP
shrunken log2 fold change: -0.108

RRIRHRPPRLPRPRPRPGCFPRP
shrunken log2 fold change: -0.181

RRIRHRPPRLPRPRPRPGDCPRP
shrunken log2 fold change: -0.0887

RRIRHRPPRLPRPRPRPGDEPRP
shrunken log2 fold change: -0.492

RRIRHRPPRLPRPRPRPGEFPRP
shrunken log2 fold change: -0.00759

RRIRHRPPRLPRPRPRPGETPRP
shrunken log2 fold change: -0.00149

RRIRHRPPRLPRPRPRPGFCPRP
shrunken log2 fold change: -0.0484

RRIRHRPPRLPRPRPRPGFFPRP
shrunken log2 fold change: 0.0196

RRIRHRPPRLPRPRPRPGFQPRP
shrunken log2 fold change: -0.0167

RRIRHRPPRLPRPRPRPGGEPRP
shrunken log2 fold change: 0.183

RRIRHRPPRLPRPRPRPGGVPRP
shrunken log2 fold change: 0.237

RRIRHRPPRLPRPRPRPGHEPRP
shrunken log2 fold change: -0.133

RRIRHRPPRLPRPRPRPGIWPRP
shrunken log2 fold change: 0.139

RRIRHRPPRLPRPRPRPGKSPRP
shrunken log2 fold change: -0.0128

RRIRHRPPRLPRPRPRPGLPPRP
shrunken log2 fold change: 0.118

RRIRHRPPRLPRPRPRPGLVPRP
shrunken log2 fold change: 0.0437

RRIRHRPPRLPRPRPRPGLYPRP
shrunken log2 fold change: -0.149

RRIRHRPPRLPRPRPRPGMIPRP
shrunken log2 fold change: -0.187

RRIRHRPPRLPRPRPRPGNIPRP
shrunken log2 fold change: -0.227

RRIRHRPPRLPRPRPRPGQVPRP
shrunken log2 fold change: -0.00149

RRIRHRPPRLPRPRPRPGQWPRP
shrunken log2 fold change: 0.318

RRIRHRPPRLPRPRPRPGRDPRP
shrunken log2 fold change: 0.135

RRIRHRPPRLPRPRPRPGRYPRP
shrunken log2 fold change: -0.017

RRIRHRPPRLPRPRPRPGTNPRP
shrunken log2 fold change: -0.212

RRIRHRPPRLPRPRPRPGTPPRP
shrunken log2 fold change: 0.104

RRIRHRPPRLPRPRPRPGVDPRP
shrunken log2 fold change: -0.213

RRIRHRPPRLPRPRPRPHADPRP
shrunken log2 fold change: -0.208

RRIRHRPPRLPRPRPRPHAMPRP
shrunken log2 fold change: -0.00419

RRIRHRPPRLPRPRPRPHDAPRP
shrunken log2 fold change: -0.357

RRIRHRPPRLPRPRPRPHESPRP
shrunken log2 fold change: -0.0218

RRIRHRPPRLPRPRPRPHEWPRP
shrunken log2 fold change: 0.00275

RRIRHRPPRLPRPRPRPHFDPRP
shrunken log2 fold change: -0.107

RRIRHRPPRLPRPRPRPHFTPRP
shrunken log2 fold change: -0.67

RRIRHRPPRLPRPRPRPHGMPRP
shrunken log2 fold change: -0.000911

RRIRHRPPRLPRPRPRPHHVPRP
shrunken log2 fold change: -0.35

RRIRHRPPRLPRPRPRPHIMPRP
shrunken log2 fold change: -0.63

RRIRHRPPRLPRPRPRPHINPRP
shrunken log2 fold change: -0.563

RRIRHRPPRLPRPRPRPHKEPRP
shrunken log2 fold change: -0.00832

RRIRHRPPRLPRPRPRPHLDPRP
shrunken log2 fold change: -0.214

RRIRHRPPRLPRPRPRPHLHPRP
shrunken log2 fold change: -0.513

RRIRHRPPRLPRPRPRPHNLPRP
shrunken log2 fold change: 0.0201

RRIRHRPPRLPRPRPRPHNRPRP
shrunken log2 fold change: -0.0976

RRIRHRPPRLPRPRPRPHPCPRP
shrunken log2 fold change: -0.612

RRIRHRPPRLPRPRPRPHPKPRP
shrunken log2 fold change: 0.0027

RRIRHRPPRLPRPRPRPHQCPRP
shrunken log2 fold change: 1.73

RRIRHRPPRLPRPRPRPHQRPRP
shrunken log2 fold change: 0.0129

RRIRHRPPRLPRPRPRPHRYPRP
shrunken log2 fold change: -0.136

RRIRHRPPRLPRPRPRPHSIPRP
shrunken log2 fold change: -0.318

RRIRHRPPRLPRPRPRPHTGPRP
shrunken log2 fold change: -0.226

RRIRHRPPRLPRPRPRPHWPPRP
shrunken log2 fold change: -0.25

RRIRHRPPRLPRPRPRPHWVPRP
shrunken log2 fold change: -0.00951

RRIRHRPPRLPRPRPRPHYQPRP
shrunken log2 fold change: 0.0121

RRIRHRPPRLPRPRPRPIAPPRP
shrunken log2 fold change: 0.0449

RRIRHRPPRLPRPRPRPICEPRP
shrunken log2 fold change: -0.369

RRIRHRPPRLPRPRPRPICPPRP
shrunken log2 fold change: -0.144

RRIRHRPPRLPRPRPRPIDKPRP
shrunken log2 fold change: 0.0156

RRIRHRPPRLPRPRPRPIDLPRP
shrunken log2 fold change: 0.036

RRIRHRPPRLPRPRPRPIFPPRP
shrunken log2 fold change: 0.033

RRIRHRPPRLPRPRPRPIGGPRP
shrunken log2 fold change: 0.111

RRIRHRPPRLPRPRPRPIKLPRP
shrunken log2 fold change: -0.118

RRIRHRPPRLPRPRPRPIQDPRP
shrunken log2 fold change: -0.00151

RRIRHRPPRLPRPRPRPIQLPRP
shrunken log2 fold change: 0.128

RRIRHRPPRLPRPRPRPIQPPRP
shrunken log2 fold change: 0.0532

RRIRHRPPRLPRPRPRPIREPRP
shrunken log2 fold change: -0.00145

RRIRHRPPRLPRPRPRPITIPRP
shrunken log2 fold change: -0.124

RRIRHRPPRLPRPRPRPIWDPRP
shrunken log2 fold change: -0.00794

RRIRHRPPRLPRPRPRPIYAPRP
shrunken log2 fold change: 0.0179

RRIRHRPPRLPRPRPRPIYCPRP
shrunken log2 fold change: -0.0143

RRIRHRPPRLPRPRPRPIYLPRP
shrunken log2 fold change: -0.211

RRIRHRPPRLPRPRPRPKCTPRP
shrunken log2 fold change: -0.0702

RRIRHRPPRLPRPRPRPKDFPRP
shrunken log2 fold change: -0.0494

RRIRHRPPRLPRPRPRPKEFPRP
shrunken log2 fold change: -0.0336

RRIRHRPPRLPRPRPRPKEKPRP
shrunken log2 fold change: 0.0444

RRIRHRPPRLPRPRPRPKEYPRP
shrunken log2 fold change: -0.0937

RRIRHRPPRLPRPRPRPKFMPRP
shrunken log2 fold change: -0.497

RRIRHRPPRLPRPRPRPKHEPRP
shrunken log2 fold change: -0.156

RRIRHRPPRLPRPRPRPKIDPRP
shrunken log2 fold change: -0.0926

RRIRHRPPRLPRPRPRPKIFPRP
shrunken log2 fold change: -0.0798

RRIRHRPPRLPRPRPRPKITPRP
shrunken log2 fold change: -0.913

RRIRHRPPRLPRPRPRPKKEPRP
shrunken log2 fold change: -0.0501

RRIRHRPPRLPRPRPRPKKMPRP
shrunken log2 fold change: -0.132

RRIRHRPPRLPRPRPRPKKVPRP
shrunken log2 fold change: 0.00707

RRIRHRPPRLPRPRPRPKLHPRP
shrunken log2 fold change: -0.271

RRIRHRPPRLPRPRPRPKMGPRP
shrunken log2 fold change: -0.00141

RRIRHRPPRLPRPRPRPKMYPRP
shrunken log2 fold change: -0.289

RRIRHRPPRLPRPRPRPKNGPRP
shrunken log2 fold change: -0.0347

RRIRHRPPRLPRPRPRPKNKPRP
shrunken log2 fold change: -0.521

RRIRHRPPRLPRPRPRPKNWPRP
shrunken log2 fold change: 0.136

RRIRHRPPRLPRPRPRPKPFPRP
shrunken log2 fold change: 0.0272

RRIRHRPPRLPRPRPRPKQGPRP
shrunken log2 fold change: -0.0386

RRIRHRPPRLPRPRPRPKQNPRP
shrunken log2 fold change: 0.139

RRIRHRPPRLPRPRPRPKRFPRP
shrunken log2 fold change: 0.0543

RRIRHRPPRLPRPRPRPKSQPRP
shrunken log2 fold change: -0.149

RRIRHRPPRLPRPRPRPKTIPRP
shrunken log2 fold change: -0.486

RRIRHRPPRLPRPRPRPKTLPRP
shrunken log2 fold change: -0.984

RRIRHRPPRLPRPRPRPKTNPRP
shrunken log2 fold change: -0.376

RRIRHRPPRLPRPRPRPKVIPRP
shrunken log2 fold change: 0.109

RRIRHRPPRLPRPRPRPKVNPRP
shrunken log2 fold change: -0.181

RRIRHRPPRLPRPRPRPKVQPRP
shrunken log2 fold change: 0.146

RRIRHRPPRLPRPRPRPKVVPRP
shrunken log2 fold change: -0.00398
